According to patent US20020034767A1, “Compositions and methods for modulating the activity of G protein-coupled receptor kinases GRK5 and GRK6” (priority 1993, published 2002):

Legend:
Assay in all cases: cell-based or functional assay
[1] = molecular target: rhodopsin in urea treated rod outer segments (bovine) (UniProt P02699)
[2] = molecular target: G protein-coupled receptor kinase GRK6 (human) (human) (UniProt P43250)
[3] = molecular target: G protein-coupled receptor kinase GRK5 (human) (human) (UniProt P34947)
Sequence of G protein-coupled receptor kinase GRK5 (human) (human) (P34947 whole entry E78G): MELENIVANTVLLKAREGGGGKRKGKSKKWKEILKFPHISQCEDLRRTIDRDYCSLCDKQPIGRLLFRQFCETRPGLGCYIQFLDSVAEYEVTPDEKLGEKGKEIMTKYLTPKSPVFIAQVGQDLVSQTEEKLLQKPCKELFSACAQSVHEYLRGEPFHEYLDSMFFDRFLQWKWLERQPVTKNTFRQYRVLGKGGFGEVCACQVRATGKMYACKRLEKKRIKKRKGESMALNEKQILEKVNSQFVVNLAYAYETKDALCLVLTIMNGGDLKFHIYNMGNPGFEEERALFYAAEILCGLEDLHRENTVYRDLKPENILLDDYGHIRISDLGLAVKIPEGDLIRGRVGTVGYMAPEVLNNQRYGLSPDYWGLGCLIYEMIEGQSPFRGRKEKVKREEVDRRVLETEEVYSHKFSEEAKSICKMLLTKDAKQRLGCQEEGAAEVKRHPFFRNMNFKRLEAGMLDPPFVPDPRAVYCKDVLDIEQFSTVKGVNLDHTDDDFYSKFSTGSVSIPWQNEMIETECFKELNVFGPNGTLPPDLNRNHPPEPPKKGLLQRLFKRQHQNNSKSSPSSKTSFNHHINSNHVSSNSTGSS

Sequence of rhodopsin in urea treated rod outer segments (bovine) (P02699 whole entry): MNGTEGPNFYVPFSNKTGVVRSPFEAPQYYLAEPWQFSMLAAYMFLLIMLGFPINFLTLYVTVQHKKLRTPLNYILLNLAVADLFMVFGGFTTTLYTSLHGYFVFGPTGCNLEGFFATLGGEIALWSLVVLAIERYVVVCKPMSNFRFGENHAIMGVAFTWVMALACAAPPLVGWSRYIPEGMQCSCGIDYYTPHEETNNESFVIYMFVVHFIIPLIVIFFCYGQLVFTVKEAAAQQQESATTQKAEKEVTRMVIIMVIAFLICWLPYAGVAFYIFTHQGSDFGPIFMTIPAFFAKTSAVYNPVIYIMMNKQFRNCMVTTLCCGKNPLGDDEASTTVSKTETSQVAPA
Sequence of G protein-coupled receptor kinase GRK6 (human) (human) (P43250 other isoform, or with tags, fused parts or gaps limits assumed): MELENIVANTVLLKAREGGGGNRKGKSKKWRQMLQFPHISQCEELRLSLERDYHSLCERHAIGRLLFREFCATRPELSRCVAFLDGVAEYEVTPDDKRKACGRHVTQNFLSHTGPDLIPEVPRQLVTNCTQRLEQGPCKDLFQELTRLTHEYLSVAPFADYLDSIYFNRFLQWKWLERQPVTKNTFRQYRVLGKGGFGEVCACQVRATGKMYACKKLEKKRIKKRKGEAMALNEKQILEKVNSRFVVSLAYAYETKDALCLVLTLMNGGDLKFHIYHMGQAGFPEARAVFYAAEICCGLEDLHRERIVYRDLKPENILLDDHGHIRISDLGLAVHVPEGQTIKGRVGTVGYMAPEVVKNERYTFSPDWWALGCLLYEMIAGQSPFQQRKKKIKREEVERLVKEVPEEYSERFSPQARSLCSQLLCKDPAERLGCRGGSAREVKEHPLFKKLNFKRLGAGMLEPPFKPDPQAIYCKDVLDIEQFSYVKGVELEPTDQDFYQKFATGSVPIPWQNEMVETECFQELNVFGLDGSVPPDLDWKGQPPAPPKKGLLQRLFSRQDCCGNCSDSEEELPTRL

Substance	light-dependent rhodopsin phosphorylation by Sf9 cell supernatant [1]	IC50 of inhibition of kinase activity [2]	fold less effective as inhibitor compared to GRK5 [2]	other results
G protein-coupled receptor kinase GRK5 (human) (from UniProt P34947 1-590) (enzyme)	1120 pmol/min/mg			
polyaspartic acid (peptide)		487 nM	6 fold	
G protein-coupled receptor kinase GRK6 (human) (from UniProt P43250 1-576) (enzyme)				specific activity of phosphorylation of bleached rhodopsin by Sf9 cell supernatant (pmol/min/mg protein) [1]: 81
polyglutamic acid (peptide)		400 nM	16 fold	
polylysine, a 14-16 amino acid peptide				fold activation of kinase activity [3]: 2.6 fold
β-adrenergic receptor kinase (enzyme)	2470 pmol/min/mg			
